The target of this assay is T1, AD-T (UniProt P03070 87-708).
T1 construct: Commercial Y2H control prey; also called control prey
The assay is described as follows: yeast two-hybrid in Y2H Gold; growth on QDO and colour on QDO/X/A.

B1: BD-Lam (other)
chain: MKLLSSIEQACDICRLKKLKCSKEKPKCAKCLKNNWECRYSPKTKRSPLTRAHLTEVESRLERLEQLFLLIFPREDLDMILKMDSLQDIKALLTGLFVQDNVNKDAVTDRLASVETDMPLTLRQHRISATSSSEESSNKGQRQLTVSSEEVVSREVSGIKAAYEAELGDARKTLDSVAKERARLQLELSKVREEFKELKARNTKKEGDLIAAQARLKDLEALLNSKEAALSTALSEKRTLEGELHDLRGQVAKLEAALGEAKKQLQDEMLRRVDAENRLQTMKEELDFQKNIYSEELRETKRRHETRLVEID
notes: Commercial Y2H negative control bait; also called negative control bait
B1: the binding result is on record as “no binding”.

The values are drawn from patent US20220186239A1 (NINGBO UNIVERSITY, published 2022).
